# According to US20070249530A1:
# Experiments:
# [1] = biological target: Murine APRIL (K104-L241) thioredoxin fusion protein (murine) (UniProt Q9D777); test: competitive displacement ELISA on immobilized APRIL; unlabeled baculovirus BCMA varied, tracer biotinylated baculovirus BCMA
# [2] = biological target: Murine APRIL (K104-L241) thioredoxin fusion protein (murine) (UniProt Q9D777); test: competitive displacement ELISA on immobilized APRIL; unlabeled baculovirus BCMA varied, tracer biotinylated BCMA-Z
# [3] = biological target: Murine APRIL (K104-L241) thioredoxin fusion protein (murine) (UniProt Q9D777); test: competitive displacement ELISA on immobilized APRIL; unbiotinylated BCMA-Fc varied, tracer biotinylated BCMA-Z
# [4] = biological target: Murine APRIL (K104-L241) thioredoxin fusion protein (murine) (UniProt Q9D777); test: competitive displacement ELISA; immobilized APRIL, tracer biotinylated BCMA-Z
# [5] = biological target: Murine APRIL (K104-L241) thioredoxin fusion protein (murine) (UniProt Q9D777); test: competition ELISA; immobilized APRIL, tracer biotinylated BCMA-Z
# [6] = biological target: Murine APRIL (K104-L241) thioredoxin fusion protein (murine) (UniProt Q9D777); test: SPR (BIAcore 3000), APRIL immobilized, 1:1 model
# Chain of BCMA-Fc (Q02223 5-51): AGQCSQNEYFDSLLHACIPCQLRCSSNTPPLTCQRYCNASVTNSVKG
# Chain of BCMA ECD purified from baculovirus expression (Q02223 4-53): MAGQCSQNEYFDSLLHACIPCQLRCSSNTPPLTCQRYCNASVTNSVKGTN
Substance,IC50 (read off the curve) [1],IC50 (read off the curve) [2],IC50 (read off the curve) [3],IC50 [4],IC50 [5],Kd [6],kon [6]
BCMA ECD purified from baculovirus expression (from UniProt Q02223 4-53) (receptor),20 nM,10 nM,,,,,
BCMA-Fc (from UniProt Q02223 5-51) (Fc fusion),,,7 nM,5 nM,7 to 10 nM,0.2 nM,3.12e+06 M⁻¹ s⁻¹
